The nanobody polyreactivity screen of Harvey et al. (2022)

Test: yeast display, Sf9 membrane polyspecificity reagent, FACS + sequencing; frameworks hold sequencing errors
Procedure, shortened: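 Galactose induction of a Saccharomyces cerevisiae BJ5465 synthetic nanobody display library ran 36–48 hours. The cells were then stained for 1 hour at 4 °C with 10% biotinylated, detergent-solubilized Sf9 membrane reagent, pulled down on streptavidin microbeads and FACS-sorted into low and high (top ~1%) gates on expression and reagent-binding fluorescence. Labels for polyreactivity follow the gate of origin.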

Sequence	polyreactivity (PSR sort gate)
QVQLVESGGGLVQAGGSLRLSCAASGFTFNYAMGWYTQAPGKERELVAAISSAGTTYYADSVKGRFTISRDNAKNTVYLQMNSLKPEDTAVYYCAALARPKQDRYRYYYWGQGTQVTVSS	high polyreactivity
QVQLVESGGGLVQAGGSLRLSCAASGFTFNYNAMGWYRQAPRKERELVAAISRSGGRTYYADSVKGRFTISRDKAKNTVYLQMNSLKPADTAVYYCAADSRTNGYDYWGQGTQVTVSS	high polyreactivity
QVQLVESGGGLVQAGGSLRLSCAASGFTFNYSAKGWYRQAPGKEREFVAAISRGGGRTYYADSVKGRFTISRDNANNTVYLQMNSLKPEATAVYSCAAQSVPYAYPLASYDYWGQGTQVTVSS	high polyreactivity
QVQLVESGGGLVQAGGSLRLSCAASGFTFNYYAMGWSRQAPGKERELVAAITWDGGTTYYADSVKGRFTISRDNAKNTVYLQMNSLKPEDSAVYYCAADYAWVSIYDNVPSAPGYDYWGQGTQVTVSS	low polyreactivity
QVQLVESGGGLVQAGGSLRLSCAASGFTFNYYAMGWYRQAPGKERELVAAISRSGGSTSYADSVKGRFTISRDNAKNTVYLQMNSLKPEDTAVYYCNAVRAIYRYDYWGQGTQVTVSS	high polyreactivity
QVQLVESGGGLVQAGGSLRLSCAASGFTFPDYAMGWYRQAPAKERELVAVITSGGSTYYADSVKGRFTISRDNAKNTVYLQMNSLKPEDTAVYYCATDFWDDDVEQRYDYWGQGTQVTVSS	low polyreactivity
QVQLVESGGGLVQAGGSLRLSCAASGFTFPDYAMGWYRQAPGKERELVAGISSTGDSTYYADSVKGRITISRDNAKNTVYLQMNSLKPEDTAVYYCNAAQERPIIILFSKYDYCGQGTQVTVSS	low polyreactivity
QVQLVESGGGLVQAGGSLRLSCAASGFTFPFYAMGWYRPAHRKERELVAAITASGGSTYYADSVKGRFTISRDNAKYTVYLQMNSLKPEDTAVYYCATSIYRGYYYWGQGTQVTVSS	high polyreactivity
QVQLVESGGGLVQAGGSLRLSCAASGFTFPGYTMGRYRQAPGKERELVAAITWSGGRTYYADSVKGRFTITRDNAKNTVYLQMNSLKPEDTEVYYCAANFGAFYGNRDYWGQGTQVTVSS	high polyreactivity
QVQLVESGGGLVQAGGSLRLSCAASGFTFPKYAMGWYRQSPGKERELVAGITNGGSTFYADSVKGRFTISRDNAKNTVYLQMNSLKPEDPAVYYCAASGRLSLGGRFYDLGLSYDYWGQGTQVTVSS	low polyreactivity
QVQLVESGGGLVQAGGSLRLSCAASGFTFPLYAMGWYRQAPGKERELVAAIRSSGGSTYYADSVKGRFTISRDNAKNTVYLQMNSLKPEDTAVYYCAKVRYTRRLDTYYYWGQGTQVTVSS	high polyreactivity
QVQLVESGGGLVQAGGSLRLSCAASGFTFPNYAMGWSRQAPGKERELVAAITSGGGRTNYSDSVKGRFTISRDTAKNTVYLQMNSLKPEDTAVYYCAAEYRYDYRVYSHLHVWRYDYWGQGTQVTVSS	low polyreactivity
QVQLVESGGGLVQAGGSLRLSCAASGFTFPNYDMGWYRQAPGKERELVAAITSGGGRTNYADSVKGRFTISRDNAKNTVYFQMNSLKPEDTSVYFCAKTRVRGSEFGYWGQGTQLTVSS	low polyreactivity
QVQLVESGGGLVQAGGSLRLSCAASGFTFPPYAMGWYRQAPGKERELVAAITSSGGRTYYADSVKGRFTISRDNAKNTVYLQMNSLKPEDTAVYYCAAYGRFARMNYWGQGTQVTVSS	high polyreactivity
QVQLVESGGGLVQAGGSLRLSCAASGFTFPRNAMGWYRQAPGKERELVAAISRGGGGTYYADSVKGRFTISRDNAKNTVYLQMNSLKPEDTAVYYFNAVYPGGSYKYDYWVQGTQVTVSS	high polyreactivity
QVQLVESGGGLVQAGGSLRLSCAASGFTFPRYAMGWYRQAPGKERELVAAIRRRGGSTYYADSVKGRFTISRDNAKNTVYLQMNSLKPEDTAVYYCATYNGVKGEASFDYWGQGTQVTVSS	high polyreactivity
QVQLVESGGGLVQAGGSLRLSCAASGFTFPRYAMGWYRQAPGKERELVAAITSGDRTYYADSVKGRFTISRDNAKNTVYLQMNSLKPEDTAVYYCARVPDTEGEYWGQGTQVTVSS	high polyreactivity
QVQLVESGGGLVQAGGSLRLSCAASGFTFPSYAMGWYRQAPGKERELVAVISWGGTSTYYADSVKGRFTISRDNAKNTVYLQMNSLKPEDTAVYYCATTRRVPGEYWGQGTQVTVSS	high polyreactivity
QVQLVESGGGLVQAGGSLRLSCAASGFTFPSYAMGWYRQAPGNERELVAVLSRRGGSTYYADSVKGRFTISRDNAKNTVYLQMNSLKPEDTAVYYCAADFRYYLTTRFNYWGQGTQVTVSS	high polyreactivity
QVQLVESGGGLVQAGGSLRLSCAASGFTFPVYGMGWYRQAPGKERELVAAISSRGGNTYYADSVKGRFTISRDNAKNTVYLQMNSLKPEDTAVYYCAAGGITYTGDDYWGQGTQVTVSS	high polyreactivity
QVQLVESGGGLVQAGGSLRLSCAASGFTFPWNVMGGYRQAPGKERELVAAITYDGGGTYADSVKGRFTISRDNAKNTVYLQMNSLKPEDTAVYYCNADLIYGEEYDYWGQGTQVTVSS	low polyreactivity
QVQLVESGGGLVQAGGSLRLSCAASGFTFPWYAMGWYRQAPGKERELVAAINTGGSTYYADSVKGRFTISRDNAKNTVYLQMNSLKPEDTAVYYCATLGRYRYLNTYYWGSHDYWGQGTQVTVSS	high polyreactivity

Sequence	polyreactivity (PSR sort gate)
QVQLVESGGGLVQAGGSLRLSCAASGFTFPWYTMGWYRQAPGKERELVAAINSRGGSTYYADSVKGRFTISRDNAKNTVYLQMNSLKPEDTAVYYCATRSFGRMDYWGQGTQVTVSS	high polyreactivity
QVQLVESGGGLVQAGGSLRLSCAASGFTFPYYAMGWSRQAPGKERELVAAITSSGTITYYADSVKGRFTISRDNAKNTVYLQMNSLKPEDTAVYYCAARFSSTRYLQWYYYWGQGTQVTVSS	high polyreactivity
QVQLVESGGGLVQAGGSLRLSCAASGFTFPYYAMGWYRQAPGKERELVAAISKSGGSTYYADSVKGRFTISRDNAKNTVYLQMNSLKPEDTAVYYCAAQGGSKYRGYYYWGQGTQVTVSS	high polyreactivity
QVQLVESGGGLVQAGGSLRLSCAASGFTFPYYAMGWYRQAPGKERELVAAISWSGGSTNYADSVKGRFTISRDNAKNTVYLQMNSLIPEDTAVYYCATLPGYSMDFWGQGSQVTVSS	high polyreactivity
QVQLVESGGGLVQAGGSLRLSCAASGFTFPYYAMGWYRQAPGKERELVADITSGGGTNYADSVKGRFTISRDNAKNTVYLQMNSLKPEDTAVYYCAADAYHQGMDYWGQGTQVTVSS	low polyreactivity
QVQLVESGGGLVQAGGSLRLSCAASGFTFPYYAMGWYRQSPGKERELVASISRRGGSTYYADSVKGRFTISRDNANNSVYLQMKSLKPEDTAVYYCAADGSRGRWTFDYWGQGTQVTVSS	high polyreactivity
QVQLVESGGGLVQAGGSLRLSCAASGFTFQAYAMGWYRQAPGKERELVAAINFSTGRTYYADSVKGRFTISRDNAKNTVYLQMNSLKPEDTAVYYCAADGSWTRSYDFDYWGQGTQLTVSS	high polyreactivity
QVQLVESGGGLVQAGGSLRLSCAASGFTFQEYAMGWYRQAPGKERELVAVISSSGVRTYYADSVKGRFTISRDNAKNTVYLQMNSLKPEDTAVYYCAARRYHYIPSTKGNYWGQGTQVTVSS	high polyreactivity
QVQLVESGGGLVQAGGSLRLSCAASGFTFQFYAMGWYRQAPGKERELVARISESGSRTYYADSVKGRFTISRDNAKNTVYLQMNSLKPEDTAVYYCAADNPYLGRKFDYWGQGTQVTVSS	high polyreactivity
QVQLVESGGGLVQAGGSLRLSCAASGFTFQFYAMGWYRQAPGKESELVASIRSGVGTYYADSVKGRFTISRDNAKNTVYLQMYCVKPEDTAVYYCNAVYNRFSRSYDYWGQGTQVTVSS	high polyreactivity
QVQLVESGGGLVQAGGSLRLSCAASGFTFQNYAMGWYSQAPGKERELVAAITYSGGSTYYADSVKGRFTISRDNAKNPVYLQMHSLKPEDTAVYYCAKKASYWWGYEYWGQGTQVTVSS	low polyreactivity
QVQLVESGGGLVQAGGSLRLSCAASGFTFQNYVMGWYRQAPGKERELVAAINSGGRTYYADSVKGRFTISRDNAKNTVYLQMNSLKPEDTAVYYCNAVQPATYKYRSHVIEYDYWGQGTQVTVSS	high polyreactivity
QVQLVESGGGLVQAGGSLRLSCAASGFTFQYKAMGVYRQAPGQERELVAAISRGGGRTYYADSVKGRFTISRDNAKNTVYLQMNSLKPEDTAVYYCNVLNYSSRHYLFSYDYWGQGTQVTVSS	high polyreactivity
QVQLVESGGGLVQAGGSLRLSCAASGFTFQYYAMGWYRQAPGKERELVAAINWSGGRTYYADSVKGRFTISRDNAKNTVYLQMNSLKPEDTAVYYCAATRSFSGGYGYVSYDYWGQGTHVTVSS	high polyreactivity
QVQLVESGGGLVQAGGSLRLSCAASGFTFQYYAMGWYRQAPGKERELVAAISRSGGSTYYADSVKGRFTISRDNAKNTVYLQMNSLKPEDTAVYYCNAGRYASGKYDYWGQGTQVTVSS	high polyreactivity
QVQLVESGGGLVQAGGSLRLSCAASGFTFQYYAMGWYRQAPGKERELVAAISWSGGRTYYADSVKGRFTISRDIAKNTVYLQLNSLKPEDNAVYYCAASYIVYPARYEDEGDYWGQGTQVTVSS	high polyreactivity
QVQLVESGGGLVQAGGSLRLSCAASGFTFQYYAMGWYRQAPGKERELVAAISWSGGRTYYADSVKGRFTISRDNAKNSVYLQMNSLKPVDTAVYYCAAQWYKWAYNNTLLRYYYWGQGTQVTVSS	high polyreactivity
QVQLVESGGGLVQAGGSLRLSCAASGFTFQYYAMGWYRQAPGKERELVAVISRSGGRTYYADSVKVRFTISRDNAKNTVYLQMNSLKPEDTAVYYCAALSQPGQSDDKQYDYWGQGTQVTVSS	high polyreactivity
QVQLVESGGGLVQAGGSLRLSCAASGFTFQYYAMGWYRQEPGKERELVAAISWGGGSTYYADSVKGRFTISRDNAKNTVYLQMNSLKPEDTAVYYCNAYEYLSAGYDYWGQGTQVTVSS	low polyreactivity
QVQLVESGGGLVQAGGSLRLSCAASGFTFQYYVMGWYRQAPGKERELVAAISWSGGSTYYADSVKGRFSISRDNAKNTVYLQMNSLKPEDTAVYYCAAEYDEFLVRFGVWYWFDYWGQGTQVTVSS	high polyreactivity
QVQLVESGGGLVQAGGSLRLSCAASGFTFRANAMGWYRQAPGKERELFATISRGGPTNYADSVKGRFTISRDNAKNTVYLQMNSLKPADTAVYYCAASFSPYHTDRGDYWGQGTQVTVSS	high polyreactivity
